Reference: IntAct's records for PubMed 19549854

B1: [PIN+] prion protein RNQ1 (Saccharomyces cerevisiae), P25367 (parent)
chain: MDTDKLISEAESHFSQGNHAEAVAKLTSAAQSNPNDEQMSTIESLIQKIAGYVMDNRSGGSDASQDRAAGGGSSFMNTLMADSKGSSQTQLGKLALLATVMTHSSNKGSSNRGFDVGTVMSMLSGSGGGSQSMGASGLAALASQFFKSGNNSQGQGQGQGQGQGQGQGQGQGSFTALASLASSFMNSNNNNQQGQNQSSGGSSFGALASMASSFMHSNNNQNSNNSQQGYNQSYQNGNQNSQGYNNQQYQGGNGGYQQQQGQSGGAFSSLASMAQSYLGGGQTQSNQQQYNQQGQNNQQQYQQQGQNYQHQQQGQQQQQGHSSSFSALASMASSYLGNNSNSNSSYGGQQQANEYGRPQQNGQQQSNEYGRPQYGGNQNSNGQHESFNFSGNFSQQNNNGNQNRY

Variants of: B1
Conditions: with mas5_yeast YDJ1, P25491
mas5_yeast YDJ1, P25491, sequence (P25491 whole entry): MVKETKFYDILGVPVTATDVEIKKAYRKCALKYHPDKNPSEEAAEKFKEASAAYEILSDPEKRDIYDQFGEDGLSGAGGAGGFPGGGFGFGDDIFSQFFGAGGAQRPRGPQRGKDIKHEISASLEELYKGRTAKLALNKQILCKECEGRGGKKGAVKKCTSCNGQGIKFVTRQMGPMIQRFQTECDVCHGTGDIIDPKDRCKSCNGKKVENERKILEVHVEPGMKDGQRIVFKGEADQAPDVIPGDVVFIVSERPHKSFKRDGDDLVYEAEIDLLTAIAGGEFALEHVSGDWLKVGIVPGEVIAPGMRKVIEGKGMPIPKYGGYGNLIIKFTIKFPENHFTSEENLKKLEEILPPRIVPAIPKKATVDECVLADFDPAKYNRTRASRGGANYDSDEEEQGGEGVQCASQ

| Variant | effect of a mutation on the interaction |
| --- | --- |
| MDTDKLISEAESHFSQGNHAEAVAKLTSAAQSNPNDEQMSTIESLIQKIAGYVMDNRSGGSDASQDRAAGGGSSFMNTLMADSKGSSQTQLGKLALLATVMTHSSNKGSSNRGFDVGTVMSMLSGSGGGSQSMGASGLAALASQFFKSGNNSQGQGQGQGQGQGQGQGQGQGSFTALASLASSFMNSNNNNQQGQNQSSGGSSFGALASMASSFMHSNNNQNSNNSQQGYNQSYQNGNQNSQGYNNQQYQGGYGGYQQQQGQSGGAFSSLASMAQSYLGGGQTQSNQQQYNQQGQNNQQQYQQQGQNYQHQQQGQQQQQGHSSSFSALASMASSYLGNNSNSNSSYGGQQQANEYGRPQQNGQQQSNEYGRPQYGGNQNSNGQHESFNFSGNFSQQNNNGNQNRY [N253Y] | disrupting interaction |
| MDTDKLISEAESHFSQGNHAEAVAKLTSAAQSNPNDEQMSTIESLIQKIAGYVMDNRSGGSDASQDRAAGGGSSFMNTLMADSKGSSQTQLGKLALLATVMTHSSNKGSSNRGFDVGTVMSMLSGSGGGSQSMGASGLAALASQFFKSGNNSQGQGQGQGQGQGQGQGQGQGSFTALASLASSFMNSNNNNQQGQNQSSGGSSFGALASMASSFMHSNNNQNSNNSQQGYNQSYQNGNQNSQGYNNQQYQGGNGGYYQQQGQSGGAFSSLASMAQSYLGGGQTQSNQQQYNQQGQNNQQQYQQQGQNYQHQQQGQQQQQGHSSSFSALASMASSYLGNNSNSNSSYGGQQQANEYGRPQQNGQQQSNEYGRPQYGGNQNSNGQHESFNFSGNFSQQNNNGNQNRY [Q257Y] | disrupting interaction |
